{"source": "paper PMC7683400", "key": {"[1]": {"biological_target": "nonglycosylated CmeA (g0CmeA), soluble periplasmic His6-tagged CmeA (Campylobacter jejuni) (UniProt Q0PBE3)", "assay": "SPR; g0CmeA (1,040 RU) or g2CmeA (900 RU) immobilised on a CM5 chip by amine coupling; CmeC flowed over in 2-fold dilutions from 2 × 10^-7 M; HBS-PE (10 mM HEPES pH 7.4, 3 mM EDTA, 0.005% P20), 25°C, 30 µl/min; constants are of the slow interactions only, the fast interactions could not be fitted"}, "[2]": {"biological_target": "fully glycosylated CmeA (g2CmeA), soluble periplasmic His6-tagged CmeA (Campylobacter jejuni) (UniProt Q0PBE3)", "assay": "SPR; g0CmeA (1,040 RU) or g2CmeA (900 RU) immobilised on a CM5 chip by amine coupling; CmeC flowed over in 2-fold dilutions from 2 × 10^-7 M; HBS-PE (10 mM HEPES pH 7.4, 3 mM EDTA, 0.005% P20), 25°C, 30 µl/min; constants are of the slow interactions only, the fast interactions could not be fitted"}, "[3]": {"biological_target": "CmeC (outer membrane channel of the CmeABC efflux pump) (UniProt Q0PBE5)", "assay": "SPR (Biacore, CM5 chip)", "settings": "pH 7.4; 25°C; not stated (no salt is listed in the buffer recipes); pH 7.4: 10 mM HEPES (HBS-PE); pH 6.0: 10 mM MES"}}, "data": [{"substance": "CmeC, outer membrane channel of CmeABC, 10×His-tagged, expressed in E. coli (natural protein)", "values": [{"measurement": "Kd", "setting": "[1]", "value": 17, "unit": "nM"}, {"measurement": "koff", "setting": "[1]", "value": 0.00085, "unit": "s⁻¹"}, {"measurement": "kon", "setting": "[1]", "value": 50000, "unit": "M⁻¹ s⁻¹"}, {"measurement": "Kd", "setting": "[2]", "value": 5, "unit": "nM"}, {"measurement": "koff", "setting": "[2]", "value": 0.00075, "unit": "s⁻¹"}, {"measurement": "kon", "setting": "[2]", "value": 150000, "unit": "M⁻¹ s⁻¹"}]}, {"substance": "g0CmeA (non-glycosylated CmeA, periplasmic fusion protein of the CmeABC efflux pump)", "values": [{"measurement": "koff", "setting": "[3]", "value": "8.5 ± 1.0 × 10^–4 s^–1"}, {"measurement": "kon", "setting": "[3]", "value": "5.0 ± 0.8 × 10^4 (M^–1 s^–1)"}]}, {"substance": "g2CmeA (fully N-glycosylated CmeA)", "values": [{"measurement": "koff", "setting": "[3]", "value": "7.5 ± 0.6 × 10^–4 s^–1"}, {"measurement": "kon", "setting": "[3]", "value": "1.5 ± 0.04 × 10^5 (M^–1 s^−1)"}]}]}
